The target of the experiment is human gp130-Fc (UniProt P40189). Put plainly: flow cytometry on yeast-displayed IL-11. Conditions: 100 nM IL-11R added, read off a plot. A general note: A flow cytometer gives signals particle by particle.
The mark [1] stands for this setting: 100 nM gp130-Fc, parent: est. 35000.
The mark [2] stands for this setting: 1000 nM gp130-Fc, parent: est. 40000.

human gp130-Fc, sequence (P40189 whole entry, looked up, tested part not stated): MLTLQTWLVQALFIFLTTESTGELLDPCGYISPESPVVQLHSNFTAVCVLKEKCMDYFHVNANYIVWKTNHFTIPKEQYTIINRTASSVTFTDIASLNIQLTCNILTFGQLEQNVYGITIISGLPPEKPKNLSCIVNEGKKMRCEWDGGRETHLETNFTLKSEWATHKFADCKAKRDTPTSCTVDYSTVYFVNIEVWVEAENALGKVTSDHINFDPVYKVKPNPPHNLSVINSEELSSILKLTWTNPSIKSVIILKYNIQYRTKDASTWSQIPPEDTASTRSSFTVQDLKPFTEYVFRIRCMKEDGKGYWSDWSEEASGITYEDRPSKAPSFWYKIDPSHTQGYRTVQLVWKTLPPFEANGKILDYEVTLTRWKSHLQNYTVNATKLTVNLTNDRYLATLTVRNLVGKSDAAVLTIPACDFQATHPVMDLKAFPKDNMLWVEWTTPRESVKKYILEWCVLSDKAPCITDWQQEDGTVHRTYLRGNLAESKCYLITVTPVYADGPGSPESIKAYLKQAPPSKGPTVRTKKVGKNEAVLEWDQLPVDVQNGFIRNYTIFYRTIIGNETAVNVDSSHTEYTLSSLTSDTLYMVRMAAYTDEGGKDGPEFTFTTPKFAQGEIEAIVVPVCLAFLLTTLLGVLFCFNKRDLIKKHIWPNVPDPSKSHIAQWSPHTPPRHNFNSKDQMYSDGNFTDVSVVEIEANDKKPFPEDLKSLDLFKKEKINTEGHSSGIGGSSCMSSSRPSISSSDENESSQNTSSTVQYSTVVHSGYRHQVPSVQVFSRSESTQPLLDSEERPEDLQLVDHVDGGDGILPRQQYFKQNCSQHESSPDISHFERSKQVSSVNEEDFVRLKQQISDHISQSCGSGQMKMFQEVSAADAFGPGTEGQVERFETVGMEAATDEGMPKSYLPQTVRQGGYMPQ

In the case of “yeast-displayed IL-11 GIPR precomplexed with soluble human IL-11R (from UniProt Q14626) L24R; W147A”, the response (Normalized Fluorescence) was 1900 under setting [1] and 4500 under setting [2].
For “yeast-displayed IL-11 GIPR precomplexed with soluble human IL-11R (from UniProt Q14626) W147A”, the response (Normalized Fluorescence) (10 nM gp130-Fc, parent: est. 28000) came to 4900; the response (Normalized Fluorescence) under setting [1] is 17000; the response (Normalized Fluorescence) under setting [2] was determined as 26000.
